Results taken from patent US20170209564A1.

Key:
Test in all cases: ELISA, coated CR6261, P. pastoris medium
9C10 = settings: remark: other sources report otherwise
61A9 = settings: remark: other sources report otherwise
81F11 = settings: remark: other sources report otherwise
74D7 = settings: remark: other sources report otherwise
72D4 = settings: remark: other sources report otherwise
70F6 = settings: remark: other sources report otherwise
71A4 = settings: remark: other sources report otherwise
36D6 = settings: remark: other sources report otherwise
63D3 = settings: remark: other sources report otherwise
56F4 = settings: remark: other sources report otherwise
79F8 = settings: remark: other sources report otherwise
36E4 = settings: remark: other sources report otherwise
96A7 = settings: remark: other sources report otherwise
50G10 = settings: remark: other sources report otherwise
29C2 = settings: remark: other sources report otherwise
80F10 = settings: remark: other sources report otherwise
87H5 = settings: remark: other sources report otherwise
1F2 = settings: remark: other sources report otherwise
11B4 = settings: remark: other sources report otherwise
10F9 = settings: remark: other sources report otherwise
57B8 = settings: remark: other sources report otherwise
12C6 = settings: remark: other sources report otherwise
96G5 = settings: remark: other sources report otherwise
84E10 = settings: remark: other sources report otherwise
85A7 = target: 85A7
75E9 = settings: remark: other sources report otherwise
86B3 = settings: remark: other sources report otherwise
63C3 = settings: remark: other sources report otherwise
27B10 = settings: remark: other sources report otherwise
86B4 = settings: remark: other sources report otherwise
90A9 = settings: remark: other sources report otherwise
11H6 = settings: remark: other sources report otherwise
56D2 = settings: remark: other sources report otherwise
71H2 = settings: remark: other sources report otherwise
84D3 = settings: remark: other sources report otherwise
55G7 = settings: remark: other sources report otherwise
75H8 = settings: remark: other sources report otherwise
55H2 = settings: remark: other sources report otherwise
91C4 = settings: remark: other sources report otherwise
7A7 = settings: remark: other sources report otherwise
86F1 = settings: remark: other sources report otherwise
58C8 = settings: remark: other sources report otherwise
78F11 = settings: remark: other sources report otherwise
79D5 = settings: remark: other sources report otherwise
54H4 = settings: remark: other sources report otherwise
91C8 = settings: remark: other sources report otherwise
67C10 = settings: remark: other sources report otherwise
69G8 = settings: remark: other sources report otherwise

B1: CR6261 (antibody, V domains shown)
VH: EVQLVESGAEVKKPGSSVKVSCKASGGPFRSYAISWVRQAPGQGPEWMGGIIPIFGTTKYAPKFQGRVTITADDFAGTVYMELSSLRSEDTAMYYCAKHMGYQVRETMDVWGKGTTVTVSS
VL: QSVLTQPPSVSAAPGQKVTISCSGSSSNIGNDYVSWYQQLPGTAPKLLIYDNNKRPSGIPDRFSGSKSGTSATLGITGLQTGDEANYYCATWDRRPTAYVVFGGGTKLTVLG
**Q.** With B1 as the binder, how does the CR6261 binding signal (9C10) read?
**A.** 114000

**Q.** And the CR6261 binding signal (61A9)?
**A.** 383000

**Q.** What about the CR6261 binding signal (81F11) of the same binder?
**A.** 318000

**Q.** And the CR6261 binding signal (74D7)?
**A.** 359000

**Q.** What about the CR6261 binding signal (72D4) of the same binder?
**A.** 330000

**Q.** And the CR6261 binding signal (70F6)?
**A.** 419000

**Q.** And the CR6261 binding signal (71A4)?
**A.** 1.05e+06

**Q.** And the CR6261 binding signal (36D6)?
**A.** 71300

**Q.** And the CR6261 binding signal (63D3)?
**A.** 146000

**Q.** And the CR6261 binding signal (56F4)?
**A.** 186000

**Q.** What about the CR6261 binding signal (79F8) of the same binder?
**A.** 185000

**Q.** And the CR6261 binding signal (36E4)?
**A.** 196000

**Q.** And the CR6261 binding signal (96A7)?
**A.** 83300

**Q.** What about the CR6261 binding signal (50G10) of the same binder?
**A.** 264000

**Q.** What about the CR6261 binding signal (29C2) of the same binder?
**A.** 178000

**Q.** What about the CR6261 binding signal (80F10) of the same binder?
**A.** 90900

**Q.** What about the CR6261 binding signal (87H5) of the same binder?
**A.** 78100

**Q.** And the CR6261 binding signal (1F2)?
**A.** 149000

**Q.** And the CR6261 binding signal (11B4)?
**A.** 166000

**Q.** And the CR6261 binding signal (10F9)?
**A.** 166000

**Q.** What about the CR6261 binding signal (57B8) of the same binder?
**A.** 58400

**Q.** And the CR6261 binding signal (12C6)?
**A.** 289000

**Q.** What about the CR6261 binding signal (96G5) of the same binder?
**A.** 108000

**Q.** What about the CR6261 binding signal (84E10) of the same binder?
**A.** 255000

**Q.** What about the CR6261 binding signal (85A7) of the same binder?
**A.** 236000

**Q.** What about the CR6261 binding signal (75E9) of the same binder?
**A.** 135000

**Q.** What about the CR6261 binding signal (86B3) of the same binder?
**A.** 901000

**Q.** What about the CR6261 binding signal (63C3) of the same binder?
**A.** 188000

**Q.** And the CR6261 binding signal (27B10)?
**A.** 187000

**Q.** And the CR6261 binding signal (86B4)?
**A.** 1.08e+06

**Q.** What about the CR6261 binding signal (90A9) of the same binder?
**A.** 414000

**Q.** What about the CR6261 binding signal (11H6) of the same binder?
**A.** 427000

**Q.** What about the CR6261 binding signal (56D2) of the same binder?
**A.** 146000

**Q.** And the CR6261 binding signal (71H2)?
**A.** 1.11e+06

**Q.** And the CR6261 binding signal (84D3)?
**A.** 84400

**Q.** What about the CR6261 binding signal (55G7) of the same binder?
**A.** 616000

**Q.** And the CR6261 binding signal (75H8)?
**A.** 103000

**Q.** And the CR6261 binding signal (55H2)?
**A.** 58100

**Q.** What about the CR6261 binding signal (91C4) of the same binder?
**A.** 1.16e+06

**Q.** What about the CR6261 binding signal (7A7) of the same binder?
**A.** 988000

**Q.** And the CR6261 binding signal (86F1)?
**A.** 159000

**Q.** And the CR6261 binding signal (58C8)?
**A.** 277000

**Q.** What about the CR6261 binding signal (78F11) of the same binder?
**A.** 84100

**Q.** What about the CR6261 binding signal (79D5) of the same binder?
**A.** 703000

**Q.** What about the CR6261 binding signal (54H4) of the same binder?
**A.** 292000

**Q.** And the CR6261 binding signal (91C8)?
**A.** 334000

**Q.** And the CR6261 binding signal (67C10)?
**A.** 306000

**Q.** And the CR6261 binding signal (69G8)?
**A.** 481000
